The record followed here is article PMC4237329, “Early Chordate Origin of the Vertebrate Integrin αI Domains” (PLoS ONE, 2014).

Where two headings read alike, the source gives them in different places.

This assay has as its target T1, rat tail collagen I (rat, UniProt P02454 152-1207; P02466 86-1125).
T1 construct: collagen α1(I) chain, rat; collagen α2(I) chain, rat; also called rat collagen I; source: bought: Sigma Aldrich (rat tail collagen I)
Kind of assay: solid-phase binding assay (Europium-labelled anti-GST antibody, time-resolved fluorescence); 96-well plates coated with rat collagen I; GST-αI domain at various concentrations, one hour at RT, PBS + 2 mM MgCl2; apparent affinity constants from a hyperbolic fit (Hill's equation with h = 1).

T1 sequence (P02454 152-1207, chain 1 of 2): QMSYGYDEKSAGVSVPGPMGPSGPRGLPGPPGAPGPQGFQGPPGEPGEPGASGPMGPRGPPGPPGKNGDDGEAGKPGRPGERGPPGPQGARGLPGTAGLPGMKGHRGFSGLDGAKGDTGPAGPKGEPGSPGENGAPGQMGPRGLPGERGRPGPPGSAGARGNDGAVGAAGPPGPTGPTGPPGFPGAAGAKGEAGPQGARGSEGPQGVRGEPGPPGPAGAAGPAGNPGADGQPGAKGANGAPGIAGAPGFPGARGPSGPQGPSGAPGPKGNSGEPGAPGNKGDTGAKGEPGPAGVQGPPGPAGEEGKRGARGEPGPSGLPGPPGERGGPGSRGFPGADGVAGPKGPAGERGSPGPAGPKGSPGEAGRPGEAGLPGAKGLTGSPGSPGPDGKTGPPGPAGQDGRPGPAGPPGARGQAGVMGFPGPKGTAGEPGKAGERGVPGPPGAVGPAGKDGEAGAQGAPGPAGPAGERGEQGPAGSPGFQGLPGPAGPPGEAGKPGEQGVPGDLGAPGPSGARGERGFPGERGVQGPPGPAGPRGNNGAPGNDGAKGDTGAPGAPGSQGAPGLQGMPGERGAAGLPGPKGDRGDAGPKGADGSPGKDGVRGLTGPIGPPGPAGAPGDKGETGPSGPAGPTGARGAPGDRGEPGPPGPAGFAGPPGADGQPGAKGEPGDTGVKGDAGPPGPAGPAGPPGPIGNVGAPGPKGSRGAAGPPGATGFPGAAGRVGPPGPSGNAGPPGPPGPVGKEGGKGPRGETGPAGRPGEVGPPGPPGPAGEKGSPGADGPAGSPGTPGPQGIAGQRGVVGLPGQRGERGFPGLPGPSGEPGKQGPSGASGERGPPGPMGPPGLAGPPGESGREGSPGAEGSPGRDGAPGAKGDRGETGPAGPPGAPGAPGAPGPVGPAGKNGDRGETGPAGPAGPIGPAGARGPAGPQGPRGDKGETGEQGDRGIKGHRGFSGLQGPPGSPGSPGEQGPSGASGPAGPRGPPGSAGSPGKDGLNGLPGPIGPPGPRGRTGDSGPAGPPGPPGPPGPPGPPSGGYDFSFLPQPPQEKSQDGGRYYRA
T1 sequence (P02466 86-1125, chain 2 of 2): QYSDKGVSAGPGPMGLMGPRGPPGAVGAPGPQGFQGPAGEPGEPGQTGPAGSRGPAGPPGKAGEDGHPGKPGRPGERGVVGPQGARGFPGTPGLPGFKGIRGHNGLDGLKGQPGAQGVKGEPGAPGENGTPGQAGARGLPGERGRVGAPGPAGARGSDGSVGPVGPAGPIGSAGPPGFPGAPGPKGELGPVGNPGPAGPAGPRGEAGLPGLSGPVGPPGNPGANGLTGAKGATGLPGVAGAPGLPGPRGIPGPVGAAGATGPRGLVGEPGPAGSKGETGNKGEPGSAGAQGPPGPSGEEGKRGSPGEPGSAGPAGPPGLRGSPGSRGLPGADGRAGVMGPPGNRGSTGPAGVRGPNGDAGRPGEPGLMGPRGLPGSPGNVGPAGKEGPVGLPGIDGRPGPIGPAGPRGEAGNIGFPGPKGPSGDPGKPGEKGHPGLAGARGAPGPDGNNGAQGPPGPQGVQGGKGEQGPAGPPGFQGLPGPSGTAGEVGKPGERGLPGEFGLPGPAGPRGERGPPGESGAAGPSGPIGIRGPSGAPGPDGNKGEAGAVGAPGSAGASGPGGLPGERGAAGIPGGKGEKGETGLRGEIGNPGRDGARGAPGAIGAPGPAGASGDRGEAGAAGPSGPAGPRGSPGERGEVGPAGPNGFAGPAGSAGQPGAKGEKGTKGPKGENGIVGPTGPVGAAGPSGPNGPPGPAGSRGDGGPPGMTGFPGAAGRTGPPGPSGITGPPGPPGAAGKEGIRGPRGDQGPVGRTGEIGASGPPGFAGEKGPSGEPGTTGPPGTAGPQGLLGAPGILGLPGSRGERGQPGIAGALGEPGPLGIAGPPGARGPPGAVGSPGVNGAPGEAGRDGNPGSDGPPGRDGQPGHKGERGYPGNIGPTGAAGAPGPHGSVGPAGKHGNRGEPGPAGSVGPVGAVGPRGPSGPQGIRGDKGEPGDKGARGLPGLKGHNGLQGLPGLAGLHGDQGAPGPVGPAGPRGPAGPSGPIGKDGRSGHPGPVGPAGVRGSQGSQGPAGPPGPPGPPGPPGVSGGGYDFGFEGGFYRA

Regarding “Pma_f1 αI domain (sea lamprey integrin α subunit fragment Pma_f1), GST-fusion protein (domain or fragment)”, the Kd was determined as 200 nM. On the same count and under the same terms, under “Pma_f3 αI domain (sea lamprey integrin α subunit fragment Pma_f3), GST-fusion protein (domain or fragment)” stands 195 nM.

B1: Pma_f2 αI domain (sea lamprey integrin α subunit fragment Pma_f2), GST-fusion protein (domain or fragment, sea lamprey (Petromyzon marinus))
chain: ADFQVTSTLTPAAQRCGLFMDIVIVLDGSNSIYPWQEVQNFVINIVKKFHIGPGQSRNGGGSTRFGVRTIHWHLGIARWACEGVQDVENIYSRPFVRTASALCQSLQVVRSEAFSPLFGAREGASKVMIVVTDGESHDSEDLTEAIAACERDNITRYAIAVLGYYKRKNIDPSNFISELKAISSEPEEKHFINVADEAALNDIVGTLGERIFSLEGTV
notes: also called Pma αI domains; source: E. coli BL21 tuner (gene synthesized, in pGEX-2T), recombinant GST-fusion protein, "sufficiently pure"
B1: where the note is “both partners purified”, the Kd is 375 ± 120 nM.
